# Biological target: CD8+ splenocytes from LV-huCEA-vaccinated huCEA transgenic mice (T cell receptors of huCEA-specific CTLs)
# Test: flow cytometry, tetramer and anti-CD8 double staining of pooled splenocytes
substance,measurement,value
"PE-conjugated huCEA/H-2Db tetramer specific for EAQNTTYL (SEQ ID NO: 23) immunogenic peptide (iTag, Beckman Coulter) (from UniProt P01899 25-309) (peptide-MHC)",percent of CD8+ splenocytes stained by the tetramer,2.1%

# — US20140193449A1
